How the values were obtained:
[1] = target: T1, selection peptide GLPVPGCWHK, the last 10 amino acids of the C-terminus of type XXIII collagen alpha 1 chain …; assay: figure legend (FIG. 1A/1B), PRO-C23 competitive ELISA
T1 construct: Synthetic peptide (Genscript); also called target peptide; standard peptide
T1 peptide: GLPVPGCWHK
Protocol: (§1) ELISA-plates used for the assay development were Streptavidin-coated from Roche (cat.: 11940279). All ELISA plates were analyzed with the ELISA reader from Molecular Devices, SpectraMax M, (CA, USA). The selected monoclonal antibody was labelled with horseradish peroxidase (HRP) using the Lightning link HRP labeling kit according to the instructions of the manufacturer (Innovabioscience, Babraham, Cambridge, UK). A 96-well streptavidin plate was coated with biotin-[…] (SEQ. ID No. 1) (Genscript, USA) and incubated 30 minutes at 20° C. 20 μL of standard peptide or samples were added to appropriate wells, followed by 100 μL of HRP conjugated monoclonal antibody 10F6, and incubated 20 hour at 4° C. Finally, 100 μL tetramethylbenzidine (TMB) (Kem-En-Tec cat.4380H) was added and the plate was incubated 15 minutes at […] in the dark. All the above incubation steps included shaking at 300 rpm. After each incubation step, the plate was washed five times. The TMB reaction was stopped by adding 100 μL of stopping solution (1% H₂SO₄) and measured at 450 nm with 650 nm as the reference.
(§2) Like type XXIII collagen, type XIII and XXV collagens are also transmembrane collagens and share highly similar sequences in their C-terminus (FIG. 1A). To fully investigate the specificity of the antibody, a series of peptides were synthesized and included in the inhibition test. […] (SEQ. ID No. 5) (FIG. 1B).

[2] = target: T2, elongated peptide GLPVPGCWHKA; assay: competitive ELISA (PRO-C23 assay), peptide inhibition test
T2 peptide: GLPVPGCWHKA
Protocol: as §1, §2

[3] = target: T3, truncated peptide GLPVPGCWH; assay: as above
T3 peptide: GLPVPGCWH
Protocol: as §1, §2

[4] = target: T4, type XIII collagen C-terminal peptide GLPVQGCWNK; assay: as above
T4 construct: Synthetic peptide (Genscript); also called peptide from type XIII collagen; deselection peptide
T4 peptide: GLPVQGCWNK
Protocol: as §1, §2

[5] = target: T5, type XXV collagen C-terminal peptide GLPMPGCWQK; assay: as above
T5 construct: Synthetic peptide (Genscript); also called peptide from type XXV collagen; deselection peptide
T5 peptide: GLPMPGCWQK
Protocol: as §1, §2

binding result [1]: binds
binding result [2]: no binding
binding result [3]: no binding
binding result [4]: no binding
binding result [5]: no binding
B1: monoclonal antibody 10F6 (antibody, mouse IgG2b, kappa, V domains shown)
VH: EVKLVESGGGLVKPGGSLKLSCAASGFTFSSYAMSWVRQTPEKRLAWVASISTAGRTYYPDTVRGRITISRDNARNILYLQMSSLRSEDTAIYYCARPDYDYDGYINWGQGTLVTVSA
VL: DIVMTQAAFSNPVTLGTSAYISCRSSKSLLHSNGVTYLYWYLQKPGQSPQLLIYQMSNLASGVPDRFSSSGSGTDFTLRISRVEAEDVGVYYCAQNLELPLTFGAGTKLELKR
notes: Mouse (Balb/C) hybridoma antibody purified on an IgG column; also called PRO-C23 antibody 10F6; PRO-C23 antibody

— patent US20220227848A1 (NORDIC BIOSCIENCE A S, published 2022)
